The target in this experiment is TGFβ type I receptor (TβR-I) on human cells (human) (UniProt P36897). Nature of the experiment: cell-based or functional assay.
TGFβ type I receptor (TβR-I) on human cells (human), sequence (P36897 34-503): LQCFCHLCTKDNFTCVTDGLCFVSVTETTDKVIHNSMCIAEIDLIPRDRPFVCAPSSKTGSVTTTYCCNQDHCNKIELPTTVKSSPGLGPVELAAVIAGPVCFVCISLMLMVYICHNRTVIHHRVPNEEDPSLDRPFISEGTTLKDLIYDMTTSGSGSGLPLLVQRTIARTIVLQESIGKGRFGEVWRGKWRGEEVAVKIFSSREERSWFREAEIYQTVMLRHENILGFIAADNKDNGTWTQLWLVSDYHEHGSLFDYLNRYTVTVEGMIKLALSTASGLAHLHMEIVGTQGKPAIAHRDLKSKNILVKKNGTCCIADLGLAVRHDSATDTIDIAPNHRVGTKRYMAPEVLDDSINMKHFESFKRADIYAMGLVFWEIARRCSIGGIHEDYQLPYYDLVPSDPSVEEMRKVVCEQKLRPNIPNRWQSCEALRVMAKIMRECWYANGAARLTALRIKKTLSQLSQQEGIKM

Turning to “TGFβ (exogenous, added to human keratinocyte cultures) (ligand)”, the growth inhibition of human keratinocytes was 5 pM.

The values are drawn from US20090074790A1, “Methods for measuring transforming growth factor beta (TGF-beta) receptor signaling activity and uses thereof” (priority 2004, published 2009).
